Source: publication doi:10.1101/2025.07.16.665076, “GPLD1 is as a scavenger carrier mediating lysosomal degradation of extracellular aberrant proteins” (bioRxiv, 2025)

T1: GPLD1-mCherry-sfGFP-His (GPLD1-RG) (human, UniProt P80108 24-840)
T1 construct: signal peptide in the construct; glycosylphosphatidylinositol-specific phospholipase D1 (GPLD1), human, full length, amplified from HepG2 cDNA; The fusion is said to be 160 kDa; also called GPLD1-RFP-GFP; GPLD1-RG-His; not shown: mCherry, C-terminal, kept; sfGFP, C-terminal, kept; His, C-terminal, kept
T1 sequence (looked up): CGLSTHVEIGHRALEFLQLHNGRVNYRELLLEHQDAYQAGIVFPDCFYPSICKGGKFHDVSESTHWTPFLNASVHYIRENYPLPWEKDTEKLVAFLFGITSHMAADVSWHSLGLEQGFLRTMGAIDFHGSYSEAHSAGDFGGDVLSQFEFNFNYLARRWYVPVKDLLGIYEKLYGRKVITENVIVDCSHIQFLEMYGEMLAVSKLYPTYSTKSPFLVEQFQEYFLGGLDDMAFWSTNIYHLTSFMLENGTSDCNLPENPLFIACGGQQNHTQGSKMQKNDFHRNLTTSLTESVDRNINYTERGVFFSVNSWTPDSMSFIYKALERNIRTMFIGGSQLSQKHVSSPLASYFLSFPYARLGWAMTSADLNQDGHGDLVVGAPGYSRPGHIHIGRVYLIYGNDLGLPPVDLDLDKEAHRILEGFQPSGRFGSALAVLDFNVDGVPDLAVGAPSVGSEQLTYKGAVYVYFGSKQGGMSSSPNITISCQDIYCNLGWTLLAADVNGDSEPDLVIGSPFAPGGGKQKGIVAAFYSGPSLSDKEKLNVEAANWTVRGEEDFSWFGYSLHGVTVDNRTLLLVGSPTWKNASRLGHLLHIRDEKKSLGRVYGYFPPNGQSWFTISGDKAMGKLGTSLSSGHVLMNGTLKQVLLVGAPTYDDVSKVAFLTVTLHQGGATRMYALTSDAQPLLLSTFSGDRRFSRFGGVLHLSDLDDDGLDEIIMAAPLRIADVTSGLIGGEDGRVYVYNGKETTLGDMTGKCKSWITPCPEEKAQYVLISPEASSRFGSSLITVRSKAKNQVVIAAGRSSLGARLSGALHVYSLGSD


Molecular target: T1, GPLD1-mCherry-sfGFP-His (GPLD1-RG)
Test: co-IP; purified RG-tagged protein (GPLD1-RG 40 nM) and ALFA-tagged substrate (His-ALFA-SAA1 500 nM) in PBS, 37°C with shaking for 2 h, aggregates spun out; ALFA nanobody beads at 4°C for 2 h, four washes with PBS; immunoblot
Details: both partners purified

Row | binding result | Binder
1 | binds | His-ALFA-SAA1-N terminus (SAA1-N) (domain or fragment, human, UniProt P0DJI8 19-94, looked up, serum amyloid A1 (SAA1), human, amino acids 19-94: the N-terminal 76 residues, core amyloidogenic fragment; Prepared in 8 M urea-denatured form for all experiments; it aggregates on incubation in PBS; also called His-ALFA-tagged SAA1-N; source: E. coli BL21(DE3) pLysS, purified from inclusion bodies (Co-NTA, 8 M urea), stored in urea; not shown: His, N-terminal, kept; ALFA, N-terminal, kept) RSFFSFLGEAFDGARDMWRAYSDMREANYIGSDKYFHARGNYDAAKRGPGGAWAAEVITDARENIQRFFGHGAEDS
2 | binds | His-ALFA-SAA1-Full length (SAA1-F) (natural protein, human, UniProt P0DJI8 19-122, looked up, serum amyloid A1 (SAA1), human, amino acids 19-122; Used in native form in the immunoprecipitation; the purification of the native form is not described; also called native ALFA-SAA1-F (full-length); source: E. coli BL21(DE3) pLysS, recombinant; not shown: His, N-terminal, kept; ALFA, N-terminal, kept) RSFFSFLGEAFDGARDMWRAYSDMREANYIGSDKYFHARGNYDAAKRGPGGAWAAEVITDARENIQRFFGHGAEDSLADQAANEWGRSGKDPNHFRPAGLPEKY
